Measurements taken from patent US6861578B1, “Method for plant protection against insects or nematodes by transformation with a nucleic acid encoding equistatin” (Plant Research International B.V., priority 1997, dated 2005).
Read-outs that look alike come from different tables or passages of the source.

Legend:
[1] = tested on: T1, equistatin, isolated from sea anemone Actinia equina
T1 sequence: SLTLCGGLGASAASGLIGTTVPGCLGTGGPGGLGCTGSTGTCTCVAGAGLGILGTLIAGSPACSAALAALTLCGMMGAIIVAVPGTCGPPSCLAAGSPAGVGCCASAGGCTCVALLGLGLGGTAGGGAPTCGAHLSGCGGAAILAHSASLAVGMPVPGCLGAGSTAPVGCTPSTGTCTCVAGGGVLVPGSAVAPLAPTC

[2] = tested on: cysteine proteases; details: Yamashita and Konagaya (1996); cited from earlier work
[3] = molecular target: proteases in extracts of adult western flower thrips (Frankliniella occidentalis); test: cell-based or functional assay
[4] = tested on: western corn rootworm cysteine and aspartic protease activity; test: Protease activity of western corn rootworm larval gut extract, FITC-hemoglobin; format: biochemical, Diabrotica virgifera; details: recombinant equistatin
Procedure: (§1) Adult western flower thrips (Frankliniella occidentalis) and leafmirer flies (Liriomyza trifolii) adult were harvested from a culture maintained on chrysanthemum plants and complete thrips and flies were homogenized in extraction on buffer (200 mM β-alanine-HCl, pH 3.5) in a volume of 5 times the weight of the insects. The buffer pH was at the previously determined pH optimum of protease activity towards hemoglobin. Final instar Colorado potato beetle larvae maintained on potato plants as described in example 5 were checked for gut aspartic protease activity by preparing a total gut extract in pH 3 buffer which is optimal for Colorado potato beetle aspartic proteases (200 mM glycine, pH 3). Guts were homogenized in 100 μl buffer per gut. Third instar western corn rootworm larvae maintained on corn roots were used to remove the guts. Ten guts were homogenized in 100 μl water and spinned twice to remove insoluble material. Two types of buffers were used in the enzymatic assay. One with a pH presumably favoring cysteine proteases (50 mM MES, pH 6.5; 0.6 mg/ml L-cysteine) and one for detecting aspartic proteases (200 mM glycine, pH 3). Supernatants were stored at −20° C.
(§2) 2 μl gut extract was combined with 2 μl inhibitor (2 mM pepstatin in methanol, 4 mM E64 in water, 2 mg/ml recombinant equistatin in water. The concentration of the other proteinaceous inhibitors was not known exactly). Appropriate buffers were added to a final volume of 100 μl. After 15′ preincubation 20 μl substrate (5 mg/ml FITC-hemoglobin) was added and incubated for 30-45 min at 37 C.
(§3) Reaction was stopped by the addition of 100 μl 10% TCA. Tubes were centrifuged and 100 μl supernatant mixed with 100 μl 10 N NaOH was measured on a fluorimeter for the extent of hemoglobin hydrolysis. Measurements were done in duplicate on one (thrips, leafminer and western corn rootworm), or three (Colorado potato beetle) different gut extracts and varied by a maximum of +/−5%.

[5] = tested on: Colorado potato beetle proteases; test: Protease activity of Colorado potato beetle larval gut extract at pH 3, FITC-hemoglobin; format: biochemical, Leptinotarsa decemlineata; set-up: inhibition of total protease activity / increase of inhibition by addition of equistatin to E64 / increase of inhibition by addition of equistatin to pepstatin: concentration or dose not given beside the values
Procedure: as §1, §2, §3

[6] = tested on: thrips protease activity; test: Protease activity of adult western flower thrips extract, FITC-hemoglobin; format: biochemical, Frankliniella occidentalis; set-up: inhibition of protease activity: concentration or dose not given beside the values
Procedure: as §1, §2, §3

[7] = tested on: leafminer proteases; test: Protease activity of adult leafminer fly extract, FITC-hemoglobin; format: biochemical, Liriomyza trifolii
Procedure: as §1, §2, §3

[8] = molecular target: potato protease inhibitor-insensitive cysteine proteases of Colorado potato beetle (Leptinotarsa decemlineata) larval gut extracts; test: cell-based or functional assay
[9] = molecular target: proteases in extracts of adult leafminer flies (Liriomyza trifolii); test: cell-based or functional assay
[10] = molecular target: T2, cathepsin D (Homo sapiens, UniProt P07339); test: steady state inhibition of cathepsin D hydrolysis of chromophoric substrate
[11] = molecular target: T2, cathepsin D; test: as above; remark: listed apart in the source
[12] = molecular target: T3, papain (UniProt P00784 134-345); test: continuous rate enzyme inhibition assay with papain
T3 construct: also called cysteine proteinase, papain
T3 sequence (looked up): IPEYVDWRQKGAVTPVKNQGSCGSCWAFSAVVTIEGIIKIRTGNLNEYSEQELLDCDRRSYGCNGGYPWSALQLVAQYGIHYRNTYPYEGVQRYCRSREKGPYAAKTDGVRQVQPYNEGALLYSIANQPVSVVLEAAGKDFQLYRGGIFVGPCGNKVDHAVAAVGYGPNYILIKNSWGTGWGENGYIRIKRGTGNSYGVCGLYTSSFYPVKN

[13] = molecular target: T3, papain; test: continuous rate enzyme inhibition assay with papain; Ki = kd/ka
[14] = tested on: tri-peptidil-peptidase and endoprotease activity of Colorado potato beetle larval gut extracts; test: Tri-peptidil-peptidase and endoprotease activity of Colorado potato beetle gut extract, pGlu-Phe-Leu-pNA; format: biochemical, Leptinotarsa decemlineata
Excerpt: (§4) Guts of final instar Colorado potato beetle larvae reared on methyl jasmonate induced plants were isolated and extracted essentially as described (Bolter and Jongsma, J. Insect Physiol. 41: 1071-1078). In these gut extracts the proteases that are sensitive to the protease inhibitors of potato are already complexed. The residual protease activity is composed of potato protease-inhibitor-insensitive proteases which were induced in response to the methyl jasmonate induced potato inhibitors. These proteases are the proteases that render the beetle larvae insensitive to protease inhibitor defense of the potato plant. Wle tested a broad range of different cysteisie protease inhibitors for activity specifically against these induced potato protease inhibitor-insensitive cysteine protesses. Nearly all of these inhibitors were purified at the Jozef Stefan Institute in Slovenia. Testing their potential against Colorado potato beetle was done using both general protein substrates (azocasein, table 2) as well as specific synthetic substrates (L-Arg-pNA, table 3; pGlu-Phe-Leu-pNA, table 4; Z-Phe-Arg-pNA, table 5; Z-Arg-Arg-pNA, table 6). In specific cases inhibitors were tested at two concentrations, eauimolar and in excess to the protease, in order to obtain an indication of the tightness of the complex. […] Importantly, this class of inhibitors was capable of inhibiting nearly all general cysteine protease activity. The equistatin peptide molecule and a functional derivative thereof were not very active against the aminopeptidase-like cysteine protease activity. […] The best combination of inhibitors for full toxicity against the Colorado potato beetle would therefore be a combination of equistatin or p41 invariant chain fragment and stefin-like inhibitors.

[15] = tested on: endoprotease activity of Colorado potato beetle larval gut extracts; test: Broad spectrum endoprotease activity of Colorado potato beetle gut extract, Z-Phe-Arg-pNA; format: biochemical, Leptinotarsa decemlineata
Excerpt: as §4

[16] = tested on: endoprotease activity of Colorado potato beetle larval gut extracts; test: Narrow spectrum endoprotease activity of Colorado potato beetle gut extract, Z-Arg-Arg-pNA; format: biochemical, Leptinotarsa decemlineata; details: excess inhibitor
Excerpt: as §4

[17] = tested on: Colorado potato beetle larval gut extracts (potato protease inhibitor-insensitive cysteine proteases); test: General proteolytic activity of Colorado potato beetle larval gut extracts, azocasein; format: biochemical, Leptinotarsa decemlineata
Excerpt: as §4

[18] = tested on: amino-peptidase activity of Colorado potato beetle larval gut extracts; test: Amino-peptidase activity of Colorado potato beetle gut extract, L-Arg-pNA; format: biochemical, Leptinotarsa decemlineata
Excerpt: as §4

β-trypsin
limited proteolysis, reverse-phase HPLC and N-terminal sequencing [1]: equistatin was found to be a good substrate for trypsin

thyroglobulin: protein containing type I repeated thyroglobulin domains [reference compound]
inhibition of cysteine proteases [2]: do not inhibit

bean cystatin
residual protease activity (FITC-hemoglobin), pH 3.5 (% residual activity) [3]: 14

CC(C)C[C@H](NC(=O)[C@H]1O[C@@H]1C(=O)O)C(=O)NCCCCN=C(N)N (relative stereo) [E64, N-(L-3-trans carboxyoxiran-22-carbomyl)-L-leucyl-amido-4-guani-dobutane, reference compound]
residual protease activity ([4]; western corn rootworm pH 3): 35% | residual protease activity ([4]; western corn rootworm pH 6.5): 51% | inhibition of total protease activity ([5]; Colorado potato beetle, pH3): 24% | residual protease activity ([5]; colorado potato beetle pH 3, recombinant equistatin): 76% | residual protease activity ([6]; thrips pH 3.5, equistatin purified from sea anemone): 8% | inhibition of protease activity ([6]; thrips, pH 3.5): 92% | inhibition of protease activity ([7]; leafminer): 73% | residual protease activity ([7]; leafminer pH 3.5, equistatin purified from sea anemone): 27%

p41 invariant chain fragment (from UniProt P04233 194-258)
residual amino-peptidase activity (L-Arg-pNA), equimolar inhibitor (% of residual activity) [8]: 85 | residual amino-peptidase activity (L-Arg-pNA), excess inhibitor (% of residual activity) [8]: 75 | residual broad spectrum endoprotease activity (Z-Phe-Arg-pNA), equimolar inhibitor (% of residual activity) [8]: 30 | residual broad spectrum endoprotease activity (Z-Phe-Arg-pNA), excess inhibitor (% of residual activity) [8]: 20 | residual general proteolytic activity (azocasein) in excess of inhibitor (% residual activity) [8]: 10 | residual narrow spectrum endoprotease activity (Z-Arg-Arg-pNA), equimolar inhibitor (% of residual activity) [8]: 20 | residual narrow spectrum endoprotease activity (Z-Arg-Arg-pNA), excess inhibitor (% of residual activity) [8]: -5 | residual tri-peptidil-peptidase and endoprotease activity (pGlu-Phe-Leu-pNA), equimolar inhibitor (% of residual activity) [8]: 10 | residual tri-peptidil-peptidase and endoprotease activity (pGlu-Phe-Leu-pNA), excess inhibitor (% of residual activity) [8]: -5 | residual protease activity (FITC-hemoglobin), pH 3.5 (% residual activity) [3]: 13 | residual protease activity (FITC-hemoglobin), pH 3.5 (% residual activity) [9]: 43

B1: combined second and third domain of equistatin (eq d-2,3) (protein)
chain: AALTLCGMMGAIIVAVPGTCGPPSCLAAGSPAGVGCCASAGGCTCVALLGLGLGGTAGGGAPTCGAHLSGCGGAAILAHSASLAVGMPVPGCLGAGSTAPVGCTPSTGTCTCVAGGGVLVPGSAVAPLAPTC
Ki [10]: > 0.0006 µM | Ki [11]: 0.0004 µM | Ki [12]: > 1 µM

B2: first domain of equistatin (eq d-1) (protein)
chain: SLTLCGGLGASAASGLIGTTVPGCLGTGGPGGLGCTGSTGTCTCVAGAGLGILGTLIAGSPACSAAL
Ki [10]: 1000 µM | Ki [11]: > 1 µM | koff [12]: 0.0011 s⁻¹ | kon [12]: 1.8e+06 M⁻¹ s⁻¹ | Ki [13]: 0.00061 µM

B3: human stefin A: Type I cystatin (protein, UniProt P01040 1-98, looked up)
Cystatin-A: MIPGGLSEAKPATPEIQEIVDKVKPQLEEKTNETYGKLEAVQYKTQVVAGTNYYIKVRAGDNKYMHLKVFKSLPGQNEDLVLTGYQVDKNKDDELTGF
% of residual activity, equimolar ([14]; equimolar): 95% | % of residual activity, excess inhibitor ([14]; excess inhibitor): 90% | % of residual activity, equimolar ([15]; equimolar): 95% | % of residual activity, excess inhibitor ([15]; excess inhibitor): 80% | % of residual activity, excess inhibitor [16]: 90% | Residual activity in excess of inhibitor [17]: 90% | % of residual activity, equimolar ([18]; equimolar): 60% | % of residual activity, excess inhibitor ([18]; excess inhibitor): 10%

B4: entactin: protein with domains homologous to type I repeated thyroglobulin domains (protein, UniProt P14543 29-1247, looked up)
Nidogen-1: LSRQELFPFGPGQGDLELEDGDDFVSPALELSGALRFYDRSDIDAVYVTTNGIIATSEPPAKESHPGLFPPTFGAVAPFLADLDTTDGLGKVYYREDLSPSITQRAAECVHRGFPEISFQPSSAVVVTWESVAPYQGPSRDPDQKGKRNTFQAVLASSDSSSYAIFLYPEDGLQFHTTFSKKENNQVPAVVAFSQGSVGFLWKSNGAYNIFANDRESVENLAKSSNSGQQGVWVFEIGSPATTNGVVPADVILGTEDGAEYDDEDEDYDLATTRLGLEDVGTTPFSYKALRRGGADTYSVPSVLSPRRAATERPLGPPTERTRSFQLAVETFHQQHPQVIDVDEVEETGVVFSYNTDSRQTCANNRHQCSVHAECRDYATGFCCSCVAGYTGNGRQCVAEGSPQRVNGKVKGRIFVGSSQVPIVFENTDLHSYVVMNHGRSYTAISTIPETVGYSLLPLAPVGGIIGWMFAVEQDGFKNGFSITGGEFTRQAEVTFVGHPGNLVIKQRFSGIDEHGHLTIDTELEGRVPQIPFGSSVHIEPYTELYHYSTSVITSSSTREYTVTEPERDGASPSRIYTYQWRQTITFQECVHDDSRPALPSTQQLSVDSVFVLYNQEEKILRYALSNSIGPVREGSPDALQNPCYIGTHGCDTNAACRPGPRTQFTCECSIGFRGDGRTCYDIDECSEQPSVCGSHTICNNHPGTFRCECVEGYQFSDEGTCVAVVDQRPINYCETGLHNCDIPQRAQCIYTGGSSYTCSCLPGFSGDGQACQDVDECQPSRCHPDAFCYNTPGSFTCQCKPGYQGDGFRCVPGEVEKTRCQHEREHILGAAGATDPQRPIPPGLFVPECDAHGHYAPTQCHGSTGYCWCVDRDGREVEGTRTRPGMTPPCLSTVAPPIHQGPAVPTAVIPLPPGTHLLFAQTGKIERLPLEGNTMRKTEAKAFLHVPAKVIIGLAFDCVDKMVYWTDITEPSIGRASLHGGEPTTIIRQDLGSPEGIAVDHLGRNIFWTDSNLDRIEVAKLDGTQRRVLFETDLVNPRGIVTDSVRGNLYWTDWNRDNPKIETSYMDGTNRRILVQDDLGLPNGLTFDAFSSQLCWVDAGTNRAECLNPSQPSRRKALEGLQYPFAVTSYGKNLYFTDWKMNSVVALDLAISKETDAFQPHKQTRLYGITTALSQCPQGHNYCSVNNGGCTHLCLATPGSRTCRCPDNTLGVDCIEQK
inhibition of cysteine proteases [2]: do not inhibit
